Measurements reported in patent US20160158369A1, “PHARMACEUTICAL COMPOSITION FOR RESPIRATORY ADMINISTRATION” (SEIKAGAKU CORPORATION, priority 2013, published 2016).
Several values for one entry are separate records, joined by “and”; a condition that tells them apart may be missing. Equal values may be shown once.

Experiments:
[1] = tested on: rat antigen-induced asthma model; test: Rat antigen-induced asthma model, eosinophils in bronchoalveolar lavage fluid; type: in vivo; conditions: for number of eosinophils in bronchoalveolar lavage fluid, % of control: average value
Method: Intraperitoneal administration of 1 mL of aluminum hydroxide gel containing ovalbumin (1 mg/mL) was performed 3 times with one day interval. 14 Days after performing the first sensitization, intraperitoneal administration of 1 mL of aluminum hydroxide gel containing ovalbumin (1 mg/mL) was performed again followed by the second sensitization. 7 Days after the second sensitization, inhalation exposure of physiological saline (10 mg/mL) containing ovalbumin was performed by using a nebulizer five times with one day interval in order to induce asthma.
The 0.6 mg/mL prednisolone suspension was orally administered by using a sonde for oral administration under no anesthesia to have prednisolone amount of 3 mg/kg.
Meanwhile, the test was performed with n=6 to 12.
24 Hours after the fifth exposure, phosphate buffered saline (2 mL) containing 0.1% bovine serum albumin heated to 37° C. was injected to a bronchus of a rat under pentobarbital anesthesia and collected thereafter. This procedure was repeated 5 times to have bronchoalveolar lavage fluid. The bronchoalveolar lavage fluid was centrifuged for 3 minutes at 200×g and room temperature. The supernatant was discarded, and the pellet was re-suspended in phosphate buffered saline (500 μL) containing 0.1% bovine serum albumin.
Subsequently, a smear sample of the suspension was prepared followed by Diff-Quik staining. According to cell fractionation, ratio of eosinophil in white blood cells was calculated. According to integration with the number of white blood cells in bronchoalveolar lavage fluid, the number of […] in bronchoalveolar lavage fluid was calculated. Meanwhile, the number of white blood cells in bronchoalveolar lavage fluid was measured by using a blood cell counting chamber. The results are shown in FIG. 4 and the following table.
Dose responsiveness of the compound va in an OVA sensitized rat model was determined in the same manner as (Test example B2).
There were three doses for determination, i.e., 0.35 mg/kg, 3.5 mg/kg, and 35 mg/kg, such that the budesonide amount for administration is 0.1 mg/kg, 1 mg/kg, or 10 mg/kg.

in vivo = test: in vivo
Method: As a test substance, the compound is was used, and it was used after being dissolved in phosphate buffered saline such that the pharmaceutical concentration is 3 mg/mL.
For the test, a BN/CrlCrlj rat (Charles River Laboratories International, Inc., 5-week old) was used. It was placed on its back and fixed under general anesthesia, and by using a sonde for intratracheal administration (MicroSprayer (registered trademark) Aerosolizer Model IA-1B, manufactured by Penn-Century), intratracheal administration was performed with volume of 100 μL. As general anesthesia, inhalation of isoflurane (concentration of 3.0% and flow rate of 2.0 L/min) was employed.
Weight of the pulmonary tissue was measured and, after being added with an aqueous solution of ammonium formic acid (pH 6.0):methanol (3:2, v/v) at ratio of 40× (1 g: 40 mL), it was homogenated for about 1 minute under ice cooling by using a homogenizer. […] Meanwhile, the measurement was made with n=3 for each evaluation time point.
Each parameter of pharmacokinetics was calculated from a change in average content in pulmonary tissue. If there was an animal showing the measurement value of less than the lower limit of quantification, the average content in pulmonary tissue was calculated by substituting the value of 0 (zero) for it. The time t (hr) for calculating AUC0-t was the final time point at which the quantification can be made. Meanwhile, for calculation of the parameters of pharmacokinetics, non-compartmental analysis model analysis by WinNonlin Professional (registered trademark) Ver 5.2.1 was used. […] The results are shown in FIG. 2 and the following table.
The compounds vb obtained from Example 5 was evaluated in the same manner as the method described in (Test example B1) in terms of the persistent property of the pharmaceutical in a pulmonary tissue of a normal rat.
As a comparative control group, budesonide alone in the same amount as the compound vb, and a mixture of budesonide and chondroitin sulfate in the same amount as the compound vb were administered. Meanwhile, in the present measurement system, the lower detection limit of budesonide was 1 ng/mL. Meanwhile, the evaluation time points include three points, i.e., Hour 4, 24, and 72.

OVA sensitized rat model = test: Dose responsiveness of budesonide alone in OVA sensitized rat model; type: in vivo; conditions: doses 0.01, 0.1, 1, 10 mg/kg to bronchus 1 hour before 4th and 5th OVA exposure
Method: Dose responsiveness of budesonide alone in an OVA sensitized rat model was determined.
There were four doses for determination, i.e., 0.01 mg/kg, 0.1 mg/kg, 1 mg/kg, and 10 mg/kg.
As a test system, a male BN rat was used. For OVA sensitization, 1 mL of Alum containing 1 mg/mL OVA was administered intraperitoneally. After the sensitization, physiological saline containing 10 mg/mL OVA was used for inhalation exposure, 5 times every 24 hours, by using a nebulizer. The test substance was administered to a bronchus 1 hour before the 4th and 5th inhalation exposure of OVA.
On Hour 24 after the final exposure, 2 mL of PBS containing 0.1% BSA (heated to 37° C.) was administered under pentobarbital anesthesia to a bronchus followed by recovery. This procedure was repeated 5 times to give bronchoalveolar lavage fluid (BALF).
BALF was centrifuged for 3 minutes at 200×g and room temperature. The supernatant was discarded, and the pellet was re-suspended in PBS (500 μL, heated to 37° C.) containing 0.1% BSA. Subsequently, a smear sample of the BALF was prepared followed by Diff-Quik staining. According to cell fractionation, ratio of eosinophil in white blood cells was calculated. According to integration with the number of white blood cells in BALF, the number of […] in BALF was calculated (number of white blood cells was measured by using blood cell counting chamber).

[2] = Drug dissociation test: polysaccharide derivative in buffer solution, 36°C, 1 week, HPLC; type: physicochemical
Method: In the examples relating to drug dissociation test, the drug dissociation ratio was evaluated as described below.
Sodium dihydrogen phosphate dihydrate (780 mg (5.0 mmol)) was dissolved in 500 mL of distilled water to give a liquid A. Separately, disodium hydrogen phosphate dodecahydrate (1.79 g (5.0 mmol)) was dissolved in 500 mL of distilled water to give a liquid B. By mixing the liquid A and liquid B at ratio of 2:3, a phosphate buffer solution of pH 7.5 was prepared.
0.62 g (10 mmol) of boric acid and 0.75 g (10 mmol) of potassium chloride were weighed and dissolved in 500 mL of distilled water to give a liquid C. Separately, by diluting 0.1 N sodium hydroxide solution with distilled water (×10 dilution), a liquid D was prepared.
50 mL of the liquid C and 7 mL of the liquid D were added to a 100 mL mess flask, and according to dilution to 100 mL with distilled water, a borate buffer solution of pH 8.0 was prepared. Furthermore, 50 mL of the liquid C and 40 mL of the liquid D were added to a 100 mL mess flask, and according to mess-up to 100 mL with distilled water, a borate buffer solution of pH 9.0 was prepared.
Each polysaccharide derivative obtained from above was dissolved in a buffer solution at each pH so as to have a concentration of 5 mg/10 mL, and heated for 1 week in an incubator at 36° C. Then, the drug dissociation ratio during the incubation was evaluated every 24 hours by liquid chromatography (HPLC).
The evaluation was performed by measuring the ratio between the drug amount remained in a polysaccharide derivative and the dissociated drug amount according to use of a size exclusion chromatography column (manufactured by TOSOH, TSKgel α-6000, 7.8 mmI.D.×30 cm).
Detailed conditions for the liquid chromatography are as follows.
Analysis time: 40 minutes
Solution for elution: acetonitrile (for HPLC):physiological saline=1:2
Detector: UV detector (240 nm)

[3] = Blood kinetics (plasma drug concentration) in normal rat after intratracheal administration; type: in vivo
Method: The resultant was extracted with chloroform and methanol, and the extracted solution was measured by LC-MS/MS.

[4] = single intratracheal administration 100 μL, 7 days before the evaluation time point
[5] = BN/CrlCrlj, rat, plasma, inhaled or intranasal, 0.3 mg/animal

In the case of `C[C@]12C=CC(=O)C=C1CC[C@@H]1[C@@H]2[C@@H](O)C[C@@]2(C)[C@H]1CC[C@]2(O)C(=O)CO` [Prednisolone, prednisolone, reference compound], the “number of eosinophils in bronchoalveolar lavage fluid, % of control” value (shortened to “number of eosinophils … % of control”) ([1]; oral 3 mg/kg, five times, 30 minutes before inducing asthma, positive control) is reported as 28.0 % of control.
With `CCCC1OC2CC3C4CCC5=CC(=O)C=CC5(C)C4C(O)CC3(C)C2(C(=O)COC(=O)CCCCCCCCCCCN)O1` (stereo not drawn) [Compound xviiib, Budesonide 12-Aminododecylate] the solubility in water (Solubility in water) was “good solubility in water”.
In the case of `CCCC1O[C@@H]2C[C@H]3[C@@H]4CCC5=CC(=O)C=C[C@]5(C)[C@H]4[C@@H](O)C[C@]3(C)[C@]2(C(=O)CO)O1` (stereo partly drawn) [budesonide], the concentration at 4 h (in vivo; BN/CrlCrlj, rat, in vivo) is reported as 471 ng/g, the concentration at 24 h (in vivo; BN/CrlCrlj, rat, in vivo) is reported as 0.3 ng/g and the concentration at 72 h (in vivo; BN/CrlCrlj, rat, in vivo) is reported as 0.1 ng/g. For the same compound, the “administration amount at which eosinophil inhibitory activity was shown” value (OVA sensitized rat model) was no less than 0.1 mg/kg.
With “Chondroitin Sulfate Introduced with 21-β-Alanyl-Betamethasone [Compound ia]” the “eosinophil infiltration compared to phosphate buffered saline group (in words)” value ([1]; Day 7 after single intratracheal administration) was “significantly suppressed eosinophil infiltration” and the “number of eosinophils … % of control” value [1, 4] was 56.8 % of control.
In the case of “Carboxymethyl Cellulose (500) Introduced with 21-β-Alanyl-Budesonide [Compound xxa]”, the “Dissociation ratio (%/day)” value ([2]; pH 7.4, 36°C) is reported as 2.8 %/day and 2.6 %/day, the “Dissociation ratio (%/day)” value ([2]; pH 7.5, 36°C) is reported as 2.8 %/day and the drug dissociation ratio ([2]; pH 7.5, 36°C, day 0) is reported as 2.0%. For the same compound, the drug dissociation ratio ([2]; pH 7.5, 36°C, day 1) was 4.8%, the drug dissociation ratio ([2]; pH 7.5, 36°C, day 2) was 7.4% and the drug dissociation ratio ([2]; pH 7.5, 36°C, day 3) was 10.0%. The drug dissociation ratio ([2]; pH 7.5, 36°C, day 4) was 12.6%, the drug dissociation ratio ([2]; pH 7.5, 36°C, day 5) was 15.0% and the drug dissociation ratio ([2]; pH 7.5, 36°C, day 6) was 17.4%. For the same compound, the drug dissociation ratio ([2]; pH 7.5, 36°C, day 7) was 19.8%, the “Dissociation ratio (%/day)” value ([2]; pH 8.0, 36°C) was 5.7 %/day and 5.5 %/day and the drug dissociation ratio ([2]; pH 8.0, 36°C, day 0) was 2.7%. For the same compound, the drug dissociation ratio ([2]; pH 8.0, 36°C, day 1) was 9.9%, the drug dissociation ratio ([2]; pH 8.0, 36°C, day 2) was 16.4% and the drug dissociation ratio ([2]; pH 8.0, 36°C, day 3) was 22.1%. The drug dissociation ratio ([2]; pH 8.0, 36°C, day 4) was 27.1%, the drug dissociation ratio ([2]; pH 8.0, 36°C, day 5) was 31.7% and the drug dissociation ratio ([2]; pH 8.0, 36°C, day 6) was 35.9%. For the same compound, the drug dissociation ratio ([2]; pH 8.0, 36°C, day 7) was 39.6%.
For `C[C@H]1C[C@H]2[C@@H]3CCC4=CC(=O)C=C[C@]4(C)[C@@]3(F)[C@@H](O)C[C@]2(C)[C@@]1(O)C(=O)CO` [Betamethasone, betamethasone], the “number of eosinophils … % of control” value [1, 4] was 90.0 % of control, the Cmax [3, 5] was 1010 ng/mL and the Tmax [3, 5] was 0.5 h. The “course of plasma concentration (in words)” value ([3]; betamethasone in plasma, normal rat, intratracheal, lower limit of quantification 5 ng/mL) was “after 24 hours, it was lower than the lower limit for quantification”, the Tmax (in vivo; BN/CrlCrlj, rat, in vivo, inhaled or intranasal) was 4 h and the “time after administration until which exposure of betamethasone was observed in pulmonary tissue” value (in vivo; normal rat, intratracheal, final evaluation time point […], lower limit for quantification 10 ng/g) was 48 h.
In the case of “Chondroitin Sulfate Introduced with β-Alanyl-Proxyphylline [Compound xxiia]”, the “Dissociation ratio (%/day)” value ([2]; pH 7.4, 36°C) is reported as 0.2 %/day, the drug dissociation ratio ([2]; pH 7.4, 36°C, day 0) is reported as 0.0% and the drug dissociation ratio ([2]; pH 7.4, 36°C, day 1) is reported as 0.0%. The drug dissociation ratio ([2]; pH 7.4, 36°C, day 2) was 0.0%, the drug dissociation ratio ([2]; pH 7.4, 36°C, day 3) was 0.0% and the drug dissociation ratio ([2]; pH 7.4, 36°C, day 4) was 0.0%. For the same compound, the drug dissociation ratio ([2]; pH 7.4, 36°C, day 5) was 0.0%, the drug dissociation ratio ([2]; pH 7.4, 36°C, day 6) was 0.8% and the drug dissociation ratio ([2]; pH 7.4, 36°C, day 7) was 1.3%. For the same compound, the “Dissociation ratio (%/day)” value ([2]; pH 8.0, 36°C) was 0.4 %/day, the drug dissociation ratio ([2]; pH 8.0, 36°C, day 0) was 0.0% and the drug dissociation ratio ([2]; pH 8.0, 36°C, day 1) was 0.0%. It also gave a drug dissociation ratio ([2]; pH 8.0, 36°C, day 2) of 0.0%, a drug dissociation ratio ([2]; pH 8.0, 36°C, day 3) of 1.2% and a drug dissociation ratio ([2]; pH 8.0, 36°C, day 4) of 1.6%. The drug dissociation ratio ([2]; pH 8.0, 36°C, day 5) was 2.0%, the drug dissociation ratio ([2]; pH 8.0, 36°C, day 6) was 2.3% and the drug dissociation ratio ([2]; pH 8.0, 36°C, day 7) was 2.6%.
